Measured values as given in patent US20150239933A1 (GEORGETOWN UNIVERSITY, published 2015).
Several values for one entry are separate records, joined by “and”; a condition that tells them apart may be missing. Equal entries are not always repeated.

B1: tubulin α4 C-terminal tail (CTT) peptide, detyrosinated isoform (peptide)
peptide: EDEDEGEE
notes: Synthetic peptide from GenScript; also called α4 detyrosinated isoform
B2: tubulin α1A/1B C-terminal tail (CTT) peptide, more basic variant EGEGEEEGQQQ (peptide)
peptide: EGEGEEEGQQQ
notes: Synthetic variant peptide from GenScript; also called α1A/1B more basic
B3: tubulin α1A/1B C-terminal tail (CTT) peptide, more basic variant EGEGEEEGQQQQ (peptide)
peptide: EGEGEEEGQQQQ
notes: as for B2
B4: tubulin α1A/1B C-terminal tail (CTT) peptide, tyrosinated isoform (peptide)
peptide: EGEGEEEGEEY
notes: Synthetic peptide from GenScript; also called α1A/1B tyrosinated isoform
B5: tubulin α4 C-terminal tail (CTT) peptide, tyrosinated isoform (peptide)
peptide: EDEDEGEEY
notes: Synthetic peptide from GenScript; also called α4 tyrosinated isoform
B6: tubulin α1A/1B C-terminal tail (CTT) peptide, detyrosinated isoform (peptide)
peptide: EGEGEEEGEE
notes: Synthetic peptide from GenScript; also called α1A/1B detyrosinated isoform
B7: Human recombinant TUBB3 (other)
chain: MREIVHIQAGQCGNQIGAKFWEVISDEHGIDPSGNYVGDSDLQLERISVYYNEASSHKYVPRAILVDLEPGTMDSVRSGAFGHLFRPDNFIFGQSGAGNNWAKGHYTEGAELVDSVLDVVRKECENCDCLQGFQLTHSLGGGTGSGMGTLLISKVREEYPDRIMNTFSVVPSPKVSDTVVEPYNATLSIHQLVENTDETYCIDNEALYDICFRTLKLATPTYGDLNHLVSATMSGVTTSLRFPGQLNADLRKLAVNMVPFPRLHFFMPGFAPLTARGSQQYRALTVPELTQQMFDAKNMMAACDPRHGRYLTVATVFRGRMSMKEVDEQMLAIQSKNSSYFVEWIPNNVKVAVCDIPPRGLKMSSTFIGNSTAIQELFKRISEQFTAMFRRKAFLHWYTGEGMDEMEFTEAESNMNDLVSEYQQYQDATAEEEGEMYEDDEEESEAQGPK
notes: Bought protein; immobilised by amine coupling in SPR, in solution in the dot blot; also called tubulin β-3; Tubulin β-3
B8: tubulin α1A/1B C-terminal tail (CTT) peptide, more basic variant EGEGEEEGQQ (peptide)
peptide: EGEGEEEGQQ
notes: as for B2
B9: tubulin α4 C-terminal tail (CTT) peptide, Δ2 isoform (peptide)
peptide: EDEDEGE
notes: Synthetic peptide from GenScript; also called α4 Δ2 isoform

Experiments:
gp120IIIB [1] = target: T1, gp120IIIB (HIV, UniProt P04578 33-511); experiment: dot blot: 2 µg peptide spotted, 5 µg gp120IIIB in 20 mL, anti-gp120 antibody
T1 construct: Bought protein
Experimental: Dot blot analysis: CTTs or Helix-A and -B peptides (2 μg each) were spotted on a nitrocellulose membrane and allowed to dry. […] The membranes were washed and then incubated with a mouse anti-gp120 antibody (1:1000; Immunodiagnostics, Inc.) or mouse anti-TUBB3 antibody (1:5000; Covance, NJ) in TBST for 2 hours. Membranes were washed and incubated in goat anti-mouse HP-conjugated secondary antibody (1:20,000; Jackson ImmunoResearch Laboratories, Inc., PA). Visualization of the bands was then accomplished by the addition of PIERCE® SUPERSIGNAL™ West Pico-Stable Peroxidase Solution and Luminol/Enhancer Solution (Pierce Biotechnology, Inc., Rockford, Ill.).
Following incubation with a corresponding HRP-conjugated secondary antibody 1 hour at RT, the immunocomplexes were visualized with chemiluminescence.

Human recombinant TUBB3 = target: B7; experiment: SPR (Biacore T200), recombinant TUBB3 amine-coupled to a CM5 chip, peptide as analyte at 625 nM to 20 µM
[2] = target: T2, assembled microtubules (containing ~25% of TUBB3) (porcine, UniProt F1S6M7 41-471); experiment: SPR Biacore T200, 60 sec injection of 10 uM over immobilised microtubules, reference-subtracted
T2 construct: also called assembled MTs; MTs

gp120IIIB [3] = target: T1, gp120IIIB; experiment: SPR Biacore T200, TUBB3 immobilised, 1:1 model; mean of two experiments
Experimental: (§1) After ligand capture, the surfaces were deactivated by injecting 1 M ethanolamine for 720 sec at 10 μL/min. HBS-P (10 mM HEPES, pH7.4, 150 mM NaCl, 0.05% P-20) with 2 mM MgCl₂ used as the running buffer. Flow cell 1 on each chip was left empty and used for reference surface. […] Kinetic studies were performed by injecting different concentrations of the analytes in triplicate. The chip surface was regenerated by with 10 mM glycine pH 1.5 injected for 30 sec at a flow rate of 100 μL/min. Each sample was injected for 60 sec (contact time) followed by a dissociation time of 300 sec at a flow rate of 100 μL/min. Data was analyzed with BIACORE® T200™ Evaluation Software (version 1) to determine the equilibrium dissociation constant (KD) from a 1:1 binding model.
(§2) Recombinant TUBB3, tubulin dimer, and assembled MTs from bovine brains were immobilized on a BIACORE® CM5 chip by amine coupling. […] The kinetics of interaction was analyzed using a BIACORE® T200™ instrument. BiaEvaluation software was used to calculate binding affinities based on 1:1 binding model.

gp120MN [4] = target: T3, gp120MN (HIV, UniProt P05877 32-513); experiment: as above
T3 construct: Bought protein; only its gp120 part would apply; also called GP-MN
Experimental: as §1, §2

gp120IIIB [5] = target: T1, gp120IIIB; experiment: SPR Biacore T200, TUBB3 amine-coupled to CM5, gp120 3.13-100 nM as analyte, 1:1 model; one of two experiments
gp120MN [6] = target: T3, gp120MN; experiment: as above

Row | Binder | binding result (gp120IIIB [1]) | further results
1 | B1 | no binding | –
2 | B2 | no binding | –
3 | EEEEGEDEA (Synthetic peptide from GenScript) [tubulin β2A/2B C-terminal tail (CTT) peptide] | no binding | –
4 | B3 | no binding | –
5 | B4 | no binding | –
6 | B5 | no binding | –
7 | B6 | no binding | –
8 | RAKWNNTLKQIASK (Synthetic peptide from GenScript) [Helix-B peptide] | – | binding result (Human recombinant TUBB3): no binding (tested: 20 µM); response (4-1) RU [2]: 0.2 RU
9 | B7 | – | Kd (gp120IIIB [3]): 7.5 nM; Kd (gp120MN [4]): 740 nM; Kd (gp120IIIB [5]): 7.91 nM and 7.05 nM; Kd (gp120MN [6]): 901 nM and 579 nM
10 | B8 | no binding | –
11 | B9 | no binding | –
